For 72 sequences, protein stability index results are on record in the supplement of paper PMC10567573.

The series in a line: protein stability index of a GFP-peptide fusion (GPS, HEK-293T) (PSI 1-6); higher = more stable.
Where [1] appears, read: treatment: DMSO, c terminus: a fixed tail appended.
[2] abbreviates: treatment: MLN4924 1 uM, 8 h, c terminus: a fixed tail appended.
Setting [3] is: treatment: DMSO, c terminus: native.
Setting [4] is: treatment: MLN4924 1 uM, 8 h, c terminus: native.

± gives the standard deviation.
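Further: 24-mer peptide tiles fused after GFP, lentivirally expressed, FACS-sorted into six equal bins by GFP/DsRed ratio, decoded by Illumina sequencing, PSI is the read-weighted mean bin number.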

For SNKSLVEALGLEAEGAVPETQTLT [RHOBTB1], the protein stability index was determined as 5.09 ± 0.26 under setting [1] and 5.16 ± 0.36 under setting [2].

For the sequence SNLLSRFTRNEFNLESKSTIGVEF [RAB11A], the protein stability index runs as follows: under setting [1], 2.36 ± 0.31; under setting [2], 2.72 ± 0.49.

As to SPLAADPACLGQPHTPGKPTSSCT [FOXJ1], the protein stability index was 4.95 ± 0.17 under setting [1] and 4.89 ± 0.2 under setting [2].

Turning to SPYFHDQVLLKGMTSISLPSVMDP [ZBTB22], the protein stability index reads like this: under setting [1], 3.03 ± 0.3; under setting [2], 3.12 ± 0.28.

In turn, SQYFRSLFSSHPPLGGGVGGQDGL [KLHL14] gave a protein stability index under setting [1] of 2.72 ± 0.17 and a protein stability index under setting [2] of 2.87 ± 0.21.

Take SRDGATGHVLLTDSEFSMQEPMVP [PPFIA4]: the protein stability index by setting is: under setting [1], 4.6 ± 0.27; under setting [2], 4.6 ± 0.29.

As for SREITTLANNQCMATESVDHELGR [EHMT1], the protein stability index is 4.8 ± 0.28 under setting [1] and 4.84 ± 0.26 under setting [2].

In the case of SRPVKGQVVTVHLQTSLENGTRVQ [FKBP8], the protein stability index came out at 3.38 ± 0.45 under setting [1] and 3.51 ± 0.26 under setting [2].

As to SRQIPAPQGAVLVQREKDLPNYNW [KISS1], the protein stability index is, setting by setting: under setting [1], 3.78 ± 0.29; under setting [2], 3.79 ± 0.14.

On to SRSESPPPLSDPKQAKVVARRESG [BRD3], for which the protein stability index reads like this: under setting [1], 5.5 ± 0.21; under setting [2], 5.24 ± 0.17.

In turn, SRSRSRSRSRSRSRSNSRSRSYSP [SRSF1] showed a protein stability index under setting [1] of 5.52 ± 0.33 and a protein stability index under setting [2] of 5.56 ± 0.28.

For SRWVRDPRYREDPCKQCKKKYVKG [FBXO34], the protein stability index by setting is: under setting [1], 3.59 ± 0.44; under setting [2], 3.92 ± 0.14.

With SSASYEKENEMMKSHVMDQAINNA [IKZF1], the protein stability index by setting is: under setting [1], 4.78 ± 0.19; under setting [2], 4.74 ± 0.28.

Turning to SSCFFIESCGAQVPVEGSRRETSI, the protein stability index amounted to 3 ± 0.38 under setting [1] and 2.79 ± 0.033 under setting [2].

In the case of SSDSANTTIEDEDAKARKQEIIKT [CAMK2B], the protein stability index reads like this: under setting [1], 5.44 ± 0.21; under setting [2], 5.42 ± 0.082.

Take SSGRELGRPKELQPKKLHLCPLCG [ZNF263]: the protein stability index reads like this: under setting [1], 3.53 ± 0.2; under setting [2], 3.99 ± 0.58.

Take SSGRRVSLHCLLDQFDKDLPVYLK [DENND6A]: the protein stability index stood at 2.35 ± 0.45 under setting [1] and 2.4 ± 0.45 under setting [2].

As for SSLSFFLKKMGKRLDYLNLKGARL [FBXO39], the protein stability index runs as follows: under setting [1], 2.96 ± 0.66; under setting [2], 2.63 ± 0.43.

Consider SSNRIRHLRTHTGERPYKCSECGE [ZNF263], for which the protein stability index by setting is: under setting [1], 4.28 ± 0.089; under setting [2], 4.44 ± 0.24.

For SSSHQKCPQLGGPEASGGLVQWI [PLEKHN1], the protein stability index was determined as 3.17 ± 0.38 under setting [3] and 3.47 ± 0.26 under setting [4].

In turn, SSSSKLSRSPLKIVKKPKSMQCKV [EPB41L3] had a protein stability index under setting [1] of 3.54 ± 0.11 and a protein stability index under setting [2] of 3.41 ± 0.52.

Regarding SSSTMSKSEYMEIEEDMNNSIAHY [KCNA1], the protein stability index worked out at 4.56 ± 0.33 under setting [1] and 4.5 ± 0.11 under setting [2].

Regarding STDNIVSQWDVLSGDCDQRFRFPS [RBBP5], the protein stability index under setting [1] amounted to 3.64 ± 0.1 and the protein stability index under setting [2] stood at 3.67 ± 0.16.

For the sequence STGEVYCRVPNSGKDEIEAAVKAA [ALDH8A1], the protein stability index stood at 4.93 ± 0.4 under setting [1] and 4.94 ± 0.32 under setting [2].

With STICFGQGAARGFKSNKKKTKQC [ZNF511], the protein stability index runs as follows: under setting [3], 4.86 ± 0.14; under setting [4], 4.71 ± 0.32.

Consider STLLPLAPSNSTSLNSTFGSTNLT [NFE2L1], for which the protein stability index turned out to be 3.64 ± 0.19 under setting [1] and 3.86 ± 0.16 under setting [2].

In turn, STSRAHKLPSRRQPGLLHLQSCGD [FAM189A2] came in with a protein stability index under setting [1] of 3.67 ± 0.33 and a protein stability index under setting [2] of 3.85 ± 0.13.

STTEGIQLAKELGATYLELHSLDD [RHOBTB3]: the protein stability index is, setting by setting: under setting [1], 3.77 ± 0.3; under setting [2], 4.16 ± 0.37.

For the sequence STVKNEFSLKTFKRKSEVERAVKR [MATN2], the protein stability index came out at 4.17 ± 0.14 under setting [1] and 4.39 ± 0.3 under setting [2].

As to SVDLIKTYKHINEVYYAKKKRRAQ [DYRK1B], the protein stability index by setting is: under setting [1], 2.85 ± 0.23; under setting [2], 3.13 ± 0.14.

In the case of SVILNHMAREHAFNIGLPDNIVNC [ZNF277], the protein stability index is, setting by setting: under setting [1], 1.98 ± 0.2; under setting [2], 2.22 ± 0.45.

Turning to SVILRRYFLELTQSFIIPLERYVA [DENND6A], the protein stability index came out at 2.33 ± 0.63 under setting [1] and 2.88 ± 0.75 under setting [2].

For the sequence SVVRDLKGYPDGVKSIVVKGYNIW [TLE6], the protein stability index reads like this: under setting [1], 2.26 ± 0.26; under setting [2], 2.23 ± 0.21.

On to SWASAQVQILCHTYWEHWTSQGQV [RTP4], for which the protein stability index came out at 2.8 ± 0.74 under setting [1] and 2.77 ± 0.75 under setting [2].

SYSAGDSGDAAAQPAFTGIKGKEG [EPB41L3]: the protein stability index is, setting by setting: under setting [1], 5.37 ± 0.15; under setting [2], 5.3 ± 0.25.

In turn, TAFAPKMIVDLLSEKKTISFQGCM [OR4A15] displayed a protein stability index under setting [1] of 2.08 ± 0.13 and a protein stability index under setting [2] of 2.26 ± 0.42.

In the case of TAGLKIFEPPAPGEGNSSQNSRNK [TNFSF13B], the protein stability index runs as follows: under setting [1], 5.2 ± 0.22; under setting [2], 5.24 ± 0.15.

Sequence TAILIECGADVNVRDSDDNSPLHI [FEM1C] yielded a protein stability index under setting [1] of 3.43 ± 0.34 and a protein stability index under setting [2] of 3.5 ± 0.3.

Take TASTKNCMVGYDMGATRCDFTLSK [CPXM2]: the protein stability index by setting is: under setting [1], 2.64 ± 0.4; under setting [2], 3.03 ± 0.51.

As to TCFDQRKRANAAFLIGAYAVIYLK [CDC14A], the protein stability index reads like this: under setting [1], 2.05 ± 0.31; under setting [2], 2.13 ± 0.41.

For TEAANAARHVAPEIRELLTQFET [PWWP2B], the protein stability index reads like this: under setting [3], 3.49 ± 0.21; under setting [4], 3.88 ± 0.29.

For the sequence TEDTPKVNADIEKVNQNQAKRCTV [NSDHL], the protein stability index reads like this: under setting [1], 5.42 ± 0.23; under setting [2], 5.38 ± 0.21.

As to TEEELRRIQTQKEQAKENENGELQ [ZC2HC1C], the protein stability index reads like this: under setting [1], 5.68 ± 0.23; under setting [2], 5.54 ± 0.14.

Regarding TETHVRDWVMWAVNEFSLKGVDFQ [ETS1], the protein stability index is 2.81 ± 0.94 under setting [1] and 2.72 ± 0.78 under setting [2].

Consider TEVLRNMGFAAKAMKSVHENMDLN [CHMP4C], for which the protein stability index worked out at 3.3 ± 0.34 under setting [1] and 3.46 ± 0.16 under setting [2].

For the sequence TFDVDEYEHYERVENGDFNWIVPG [CDC14A], the protein stability index reads like this: under setting [1], 4.11 ± 0.26; under setting [2], 4.17 ± 0.17.

On to TFILKNPPENSDSGTGKKEKEKKN [EIF5], for which the protein stability index is, setting by setting: under setting [1], 4.94 ± 0.3; under setting [2], 5.137 ± 0.05.

Regarding TFPDLESEFQAALSRKVAKLVHFL [MAGEA6], the protein stability index runs as follows: under setting [1], 2.27 ± 0.2; under setting [2], 2.22 ± 0.21.

Regarding TFPKALTNGSFSPSGNNGSVNWRT [DLC1], the protein stability index worked out at 3.14 ± 0.14 under setting [1] and 3.19 ± 0.23 under setting [2].

TGGQTVVNPWIIIGGVATVVCQPN [SEPHS2] showed a protein stability index under setting [1] of 2.84 ± 0.76 and a protein stability index under setting [2] of 2.62 ± 0.7.

Turning to TIDKQREEMAKSSRASAARVGQLQ [LRRC45], the protein stability index amounted to 4.67 ± 0.14 under setting [1] and 4.73 ± 0.14 under setting [2].

Consider TITMAHLLAAREDLSKIIRTSSGT [FAM98B], for which the protein stability index reads like this: under setting [1], 2.31 ± 0.33; under setting [2], 2.38 ± 0.4.

Consider TIYCSLQLQALNRRFQQTQYLALP [DLX1], for which the protein stability index worked out at 2.53 ± 0.48 under setting [1] and 2.42 ± 0.62 under setting [2].

Regarding TKKKQWCYNCEEEAMYHCCWNTSY [ZMYND11], the protein stability index reads like this: under setting [1], 2.6 ± 0.25; under setting [2], 2.45 ± 0.4.

Turning to TKLSAQSAQYSQQLQAARNEYLLN [FCHSD1], the protein stability index was 3.19 ± 0.055 under setting [1] and 3.33 ± 0.18 under setting [2].

As for TKMWHPNIYETGDVCISILHPPVD [CDC34], the protein stability index amounted to 2.23 ± 0.2 under setting [1] and 2.12 ± 0.37 under setting [2].

Turning to TKPTQGASSASEPQGLFVEALSVP [CLPTM1], the protein stability index reads like this: under setting [1], 4.13 ± 0.097; under setting [2], 4.29 ± 0.19.

In turn, TLMGKLKLKNTVTIQQEKLLAEKE [SASS6] yielded a protein stability index under setting [1] of 3.406 ± 0.012 and a protein stability index under setting [2] of 3.39 ± 0.58.

Regarding TLRRIQASMAPAAALPPVPSPPAA [SERTAD1], the protein stability index by setting is: under setting [1], 3.6 ± 0.23; under setting [2], 3.8 ± 0.31.

As to TLRTLTGQDTMLKAMFSGRVEVLT [KCTD13], the protein stability index was determined as 2.44 ± 0.22 under setting [1] and 2.37 ± 0.29 under setting [2].

As for TLVMFQSLGERMNTFVRYLLKRIK [KCNK9], the protein stability index under setting [1] was 3 ± 0.54 and the protein stability index under setting [2] worked out at 2.73 ± 0.23.

As to TMEDTLMTVKQYEAARLEYDAYRT [ARFIP2], the protein stability index was 3.88 ± 0.27 under setting [1] and 3.74 ± 0.3 under setting [2].

For TMLATRNFSAAKSLLNKKADGVKP [CAMK2B], the protein stability index by setting is: under setting [1], 3.73 ± 0.34; under setting [2], 4.02 ± 0.32.

As for TMTNYDEAAMAIASLNGYRLGERV [ELAVL3], the protein stability index was 3 ± 0.35 under setting [1] and 3.17 ± 0.31 under setting [2].

Take TNDSLSLKPSWFDFGFAILGFAYA [MIA2]: the protein stability index runs as follows: under setting [1], 2.99 ± 0.53; under setting [2], 2.49 ± 0.4.

For the sequence TNYNNVCRKFPRDMKAMSPENQEY [RHOBTB2], the protein stability index is 3.8 ± 0.12 under setting [1] and 4.13 ± 0.12 under setting [2].

In the case of TPEDSDPDHFDTAILFTRQDLCGV [ADAMTS4], the protein stability index was 4.15 ± 0.092 under setting [1] and 4.18 ± 0.17 under setting [2].

For TPHVYWAQRHRELYLRVELSDVQN [HACD3], the protein stability index runs as follows: under setting [1], 2.28 ± 0.14; under setting [2], 2.17 ± 0.24.

Regarding TPKDKRVSNTPLRTVDGSPMMKAA [PALM], the protein stability index is, setting by setting: under setting [1], 4.33 ± 0.3; under setting [2], 4.39 ± 0.24.

As for TPLDAFRMTSAAHYYPKLMSIMGN [GFOD1], the protein stability index by setting is: under setting [1], 2.12 ± 0.33; under setting [2], 2.06 ± 0.093.

Consider TPPHLTSAMAENILAAACESETRK [NOL4L], for which the protein stability index is, setting by setting: under setting [1], 4.16 ± 0.47; under setting [2], 4.35 ± 0.2.

For the sequence TQDPSQPNSTKNQSLPKASPVTTS [LCOR], the protein stability index under setting [1] worked out at 5.21 ± 0.19 and the protein stability index under setting [2] amounted to 5.12 ± 0.23.
